Test results: patent publication US20250074980A1 (BRIGHAM AND WOMEN S HOSPITAL, published 2025)
Residue numbers refer to the chain shown, from its start. Names may count otherwise.

B1: CP09B03/CP08G09 (antibody, IgG4, V domains shown)
VH: EVQLLESGGGLVQPGGSLRLSCAASGFTFNAHAISWVRQAPGKGLEWVATISSGGTYTYYPDSVKGRFTISRDNSKNTLYLQMNSLKAEDTAMYYCARHDFDYDAAWFAYWGQGTLVTVSS
VL: EIVLTQSPATLSLSPGERATLSCRANSAVSYMYWYQQKPGQAPRPWIYLTSNRATGVPARFSGSGSGTDYTLTISSLEPEDFAVYYCQQWTAFPPTFGQGTKLEIK
notes: IgG4 (S241P), kappa
B2: CP09E05/CP08D02 (antibody, IgG4, V domains shown)
VH: B1 VH with T28I, N30S, A31S, A33G, I34M, D100G
VL: B1 VL with A92S
notes: IgG4 (S241P), kappa
B3: CP09C02/CP08G09 (antibody, IgG4, V domains shown)
VH: B1 VH with G26E, N30S, A31D, I34M, D100G
VL: B1 VL
notes: IgG4 (S241P), kappa
B4: CP09C02/CP08E01 (antibody, IgG4, V domains shown)
VH: B1 VH with G26E, N30S, A31D, I34M, D100G
VL: B1 VL with A92T
notes: IgG4 (S241P), kappa
B5: CP09E05/CP08G09 (antibody, IgG4, V domains shown)
VH: B1 VH with T28I, N30S, A31S, A33G, I34M, D100G
VL: B1 VL
notes: IgG4 (S241P), kappa
B6: CP09E05/CP08E01 (antibody, IgG4, V domains shown)
VH: B1 VH with T28I, N30S, A31S, A33G, I34M, D100G
VL: B1 VL with A92T
notes: IgG4 (S241P), kappa
B7: CP09C02/CP08D02 (antibody, IgG4, V domains shown)
VH: B1 VH with G26E, N30S, A31D, I34M, D100G
VL: B1 VL with A92S
notes: IgG4 (S241P), kappa
B8: CP09E05/CP08F05 (antibody, IgG4, V domains shown)
VH: B1 VH with T28I, N30S, A31S, A33G, I34M, D100G
VL: B1 VL with A92S, F93N
notes: IgG4 (S241P), kappa
B9: CP09E05/CP08E05 (antibody, IgG4, V domains shown)
VH: B1 VH with T28I, N30S, A31S, A33G, I34M, D100G
VL: B1 VL with A92T, F93N
notes: IgG4 (S241P), kappa

Molecular target: T1, His-tagged CEACAM1 (human, UniProt P13688 35-428)
T1 construct: 45 kDa SPR analyte; also called CEACAM1-HIS; CEACAM1 analyte
T1 sequence: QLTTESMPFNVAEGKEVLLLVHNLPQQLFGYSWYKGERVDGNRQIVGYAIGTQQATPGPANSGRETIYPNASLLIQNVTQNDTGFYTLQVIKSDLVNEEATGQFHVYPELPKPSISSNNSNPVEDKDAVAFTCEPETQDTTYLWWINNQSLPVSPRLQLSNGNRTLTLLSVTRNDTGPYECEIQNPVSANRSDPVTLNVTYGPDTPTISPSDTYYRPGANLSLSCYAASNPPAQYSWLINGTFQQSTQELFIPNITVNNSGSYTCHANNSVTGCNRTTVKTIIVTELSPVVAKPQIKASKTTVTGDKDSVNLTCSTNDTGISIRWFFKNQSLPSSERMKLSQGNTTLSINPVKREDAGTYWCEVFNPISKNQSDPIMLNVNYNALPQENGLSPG
Assay: SPR single-cycle, supernatant IgG captured
How it was run: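 IgG came from supernatants of HEK EBNA cells transiently transfected by PEI in 6-well plates and harvested 5-7 days later. Supernatants were quantified by ELISA and filtered. Single-cycle surface plasmon resonance was run on a Biacore T200 at 25° C in HBS-P+ (pH 7.4), with IgG captured on Protein A and His-tagged CEACAM1 as analyte. Kon, koff and Kd were fitted, and relative KD was calculated against the parent antibody assayed in the same experiment.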

Binder | Kd [µM] | koff [s⁻¹] | kon [M⁻¹ s⁻¹] | relative KD to parent
B1 | 0.3 | 0.037 | 130000 | 1.9
B2 | 0.33 | 0.074 | 230000 | 1.7
B3 | 0.14 | 0.018 | 130000 | 3.9
B4 | 0.14 | 0.02 | 140000 | 3.9
B5 | 0.32 | 0.043 | 140000 | 1.8
B6 | 0.32 | 0.041 | 130000 | 1.7
B7 | 0.14 | 0.022 | 160000 | 4
B8 | 0.25 | 0.034 | 140000 | 2.2
B9 | 0.2 | 0.02 | 100000 | 2.8
